Results: patent publication US12391919B2, “Culture medium, coating matrix and method for maturing midbrain dopaminergic progenitor cells” (NUWACELL BIOTECHNOLOGIES CO., LTD., priority 2022, dated 2025)

System: imDAPs
Assay: imDAP maturation: cell morphology, adhesion and cell yield
Type: cell-based, human
Conditions: Example 13; maturation media supplemented with 10 μM Y27632; day 7; FIG. 8A
Procedure: imDAPs were produced according to the method described in CN201910169525.0, and expanded as described in Example 10. […] MM-H used in Example 11 contained the following components: Neurobasal™ medium, 1% (v/v) Glutamax, 0.5 mM Db-cAMP sodium salt, 200 μM ascorbic acid, 20 ng/ml BDNF, 20 ng/ml GDNF, 1 ng/ml TGF-β3, 10 μM DAPT, HhPLT (0.5%, 1%, 2%). MM-B used in Example 11 contained the following components: Neurobasal, 1% (v/v) Glutamax, 0.5 mM Db-cAMP sodium salt, 200 μM ascorbic acid, 20 ng/ml BDNF, 20 ng/ml GDNF, 1 ng/ml TGF-β3, 10 μM DAPT, 2% (v/v) B27 (50×) (as control). The above HhPLT was produced from hPLT as follows. The hPLT was centrifuged at 3000 g for 30 min at 4° C. to obtain the supernatant, which was heated to 56° C. for 30 min. The suspension was finally cooled down to 4° C. at least 5 min, and spun at 3000 g for 30 min at 4° C. to obtain the HhPLT supernatant. Aliquots were prepared and stored at −80° C. until use. The above Medium was changed every 3rd day. On day 7, the imDAPs at early maturation stage were dissociated enzymatically with 1× TrypLE, centrifuged at 250 g for 5 minutes.
imDAPs were produced according to the method described in CN201910169525.0, and expanded as described in Example 10. […] Medium was changed every 3rd day. On day 7, the imDAPs at early maturation stage were dissociated enzymatically with 1× TrypLE, centrifuged at 250 g for 5 minutes. Cells were collected for RT-qPCR analysis of EN1, LMX1A, FOXA2, NURR1, SOX6 and TH gene expression. The maturation medium used in Example 12 contained the following components: Neurobasal™ medium, 1% (v/v) Glutamax, 1% (v/v) HhPLT, 0.5 mM Db-cAMP sodium salt, 200 μM ascorbic acid, 20 ng/mL BDNF, 20 ng/mL GDNF, 1 ng/mL TGF-β3, 10 μM DAPT.
imDAPs were produced according to the method described in CN201910169525.0, and expanded as described in Example 10. […] Cells were collected and counted by Vi-cell cytometer. The cells were analyzed by RT-qPCR for EN1, LMX1A, FOXA2, NURR1, SOX6 and TH gene expression. […]

B1: VTN: vitronectin, first coating matrix that supports cell adhesion (protein, UniProt P04004 20-478, looked up)
Vitronectin: DQESCKGRCTEGFNVDKKCQCDELCSYYQSCCTDYTAECKPQVTRGDVFTMPEDEYTVYDDGEEKNNATVHEQVGGPSLTSDLQAQSKGNPEQTPVLKPEEEAPAPEVGASKPEGIDSRPETLHPGRPQPPAEEELCSGKPFDAFTDLKNGSLFAFRGQYCYELDEKAVRPGYPKLIRDVWGIEGPIDAAFTRINCQGKTYLFKGSQYWRFEDGVLDPDYPRNISDGFDGIPDNVDAALALPAHSYSGRERVYFFKGKQYWEYQFQHQPSQEECEGSSLSAVFEHFAMMQRDSWEDIFELLFWGRTSAGTRQPQFISRDWHGVPGQVDAAMAGRIYISGMAPRPSLAKKQRFRHRNRKGYRSQRGHSRGRNQNSRRPSRATWLSLFSSEESNLGANNYDDYRMDWLVPATCEPIQSVFFFSGDKYYRVNLRTRRVDTVDPPYPRSIAQYWLGCPAPGHL
cell adhesion and growth: could grow normally
